From patent US20250027068

Target: pooled human IgG (human IgG1,2,3 and 4)

Protein	Enzyme Activity Endpoint Assay: Fab'2 [ng/µL]	Enzyme Activity Endpoint Assay: Fc [ng/µL]	Enzyme Activity Endpoint Assay: IgG [ng/µL]	Enzyme Activity Endpoint Assay: scIgG [ng/µL]
PRT-189 (protein) MANQEIRYSEVTPYHVTSVWTKGVTPPDHDFANFTQGEDVFHAPYVANQGWYDITKTFNGKDDLLCGAATAGNMLHWWFDQNKDQIKRYLEEHPEKQKINFNGEQMFDVKEAIDTKNHQLDSKLFEYFKEKAFPYLSTKHLGVFPDHVIDMFINGYRLSLTNHGPTPVKEGSKDPRGGIFDAVFTRGDQSKLLTSRHDFKEKNLKEISDLIKKELTEGKALGLSHTYANVRINHVINLWGADFDSNGNLKAIYVTDSDSNASIGMKKYFVGVNSAGKVAISAKEIKEDNIGAQVLGLFTLSTGQDSWNQTN	469	307	0	101
PRT-190 (protein) MANQEIRYSEVTPYHVTSVWTKGVTPPDHDFRKIVDGEDVFHAPYVANQGWYDITKTFNGKDDLLCGAATAGNMLHWWFDQNKDQIKRYLEEHPEKQKINFNGEQMFDVKEAIDTKNHQLDSKLFEYFKEKAFPYLSTKHLGVFPDHVIDMFINGYRLSLTNHGPTPVKEGSKDPRGGIFDAVFTRGDQSKLLTSRHDFKEKNLKEISDLIKKELTEGKALGLSHTYANVRINHVINLWGADFDSNGNLKAIYVTDSDSNASIGMKKYFVGVNSAGKVAISAKEIKEDNIGAQVLGLFTLSTGQDSWNQTN	323	278	76	145
PRT-187 (protein) MANQEIRYSEVTPYHVTSVWTKGVTPPADFTYGEDVFHAPYVANQGWYDITKTFNGKDDLLCGAATAGNMLHWWFDQNKEQIEKYLKKHPEKQKIMFGDQELLDVRKVINTKGSQTNSELFNYFRDKAFPGLSARRLGVMPDLVLDMFINGYYLNVYKTQTTDVNRTYQEKDKRGGIFDAVFTRGDQSKLLTSRHDFKEKNLKEISDLIKQELTEGKALGLSHTYANVRINHVINLWGADFDSNGNLKAIYVTDSDSNASIGMKKYFVGVNSAGKVAISAKEIKEDNIGAQVLGLFTLSTGQDIWNQTN	265	307	115	103
PRT-185 (protein) MANQEIRYSEVTPYHVTSVWTKGVTPPANFRQGEDVFAAPYVANQGWYDITKTFNGKDDLLCGAATAGNMLHWWFDQNKDQIKRYLEEHPEKQKINFNGEQMFDVKELNTYESDHGYRDKSKLFEYFKEKAFPYLSTKHLGVFPDHVIDMFINGYRLSLTNHGPTPVKEGSKDPRGGIFDAVFTRGDQSKLLTSRHDFKEKNLKEISDLIKKELTEGKALGLSHTYANVRINHVINLWGADFDSNGNLKAIYVTDSDDKKLTIGDERIGMKKYFVGVNSAGKVAISAKEIKEDNIGAQVLGLFTLSTGQDSWNQTN	0	45	365	152
PRT-183 (protein) MRNATEAYAKEVPHQVTSVWTKGVTPPANFTQGEDVFHAPYVANQGWYDITKTFNGKDDLLCGAATAGNMLHWWFDQNKDQIKRYLEEHPEKQKINFNGEQMFDVKEAIDTKNHQLDSKLFEYFKEKAFPYLSTKHLGVFPDHVIDMFINGYRLSLTNHGPTPVKEGSKDPRGGIFDAVFTRGDQSKLLTSRHDFKEKNLKEISDLIKKELTEGKALGLSHTYANVRINHVINLWGADFDSNGNLKAIYVTDSDSNASIGMKKYFVGVNSAGKVAISAKEIKEDNIGAQVLGLFTLSTGQDSWNQTN	630	175	0	0
PRT-177 (protein) MANQEIRYSEVTPYHIKTVWTDGVKPPTDFIKGEDVFHAPYKAHQGWYDITKAFDGGDDLLCGAATAGNMLHWWFDQNSTQIEAYLKKHPDKQKINFNGEQMFDVKEAIDTKNSQTNSELFNYFKEKAFPYLSTKHLGVFPDHVIDMFINGYRLSLTNHGPTPVKRQTKDPRGGIFDAVFGRGDSTKLLTSRHDFKEKTLNDISQLIKQELQSGKALGLSHTYANVRINHVINLWGADFDAEGNLEAIYVTDSDSNASIGMKKYFVGKNASGKVAISAKEIEDENIGAQVLGLFTLSTGKKSWEKTN	67	105	131	426
PRT-178 (protein) MANQEIRYSEVTPYHVTSVWTKGVTPPANFTQGEDVFHAPYVANQGWYDITKTFNGKDDLLCGAATAGNMLHWWFDQNKDQIKRYLEEHPEKQKIIFNNQELFDLKAAIDTKNHQLDSKLFEYFKEKAFPYLSTKHLGVFPDHVIDMFINGYRLSLTNHGPTPVKEGSKDPRGGIFDAVFTRGDQSKLLTSRHDFKEKNLKEISDLIKKELTEGKALGLSHTYANVRINHVINLWGADFDSNGNLKAIYVTDSDSNASIGMKKYFVGVNSAGKVAISAKEIKEDNIGAQVLGLFTLSTGQDSWNQTN	695	196	0	0
PRT-179 (protein) MANQEIRYSEVTPYHVTSVWTKGVTPPANFTQGEDVFHAPYVANQGWYDITKTFNGKDDLLCGAATAGNMLHWWFDQNKDQIKRYLEEHPEKQKINFNGEQMFDVKEAIDTKNHQLDSKLFEYFKEKAFPYLSARQLGVFPDHVIDMFINGYRLSLTNHGPTPVKEGSKDPRGGIFDAVFTRGDQSKLLTSRHDFKEKNLKEISDLIKKELTEGKALGLSHTYANVRINHVINLWGADFDSNGNLKAIYVTDSDSNASIGMKKYFVGVNSAGKVAISAKEIKEDNIGAQVLGLFTLSTGQDSWNQTN	697	187	0	0
PRT-181 (protein) MANQEIRYSEVTPYHVTSVWTKGVTPPANFTQGEDVFHAPYVANQGWYDITKTFNGKDDLLCGAATAGNMLHWWFDQNKDQIKRYLEEHPEKQKINFNGEQMFDVKEAIDTKNHQLDSKLFEYFKEKAFPYLSTKHLGVFPDHVIDMFINGYRLSLTNHGPTPVKEGSKDPRGGIFDAVFTRGDQSKLLTSRHDLKNKNLKEISDLIKKELTEGKALGLSHTYANVRINHVINLWGADFDSNGNLKAIYVTDSDSNASIGMKKYFVGVNSAGKVAISAKEIKEDNIGAQVLGLFTLSTGQDSWNQTN	890	217	24	0
PRT-182 (protein) MANQEIRYSEVTPYHVTSVWTKGVTPPANFTQGEDVFHAPYVANQGWYDITKTFNGKDDLLCGAATAGNMLHWWFDQNKDQIKRYLEEHPEKQKINFNGEQMFDVKEAIDTKNHQLDSKLFEYFKEKAFPYLSTKHLGVFPDHVIDMFINGYRLSLTNHGPTPVKEGSKDPRGGIFDAVFTRGDQSKLLTSRHDFKEKNLKEISDLIKKELTEGKALGLSHTYANVRINHVINLWGADFDSNGNLKAIYVTDSDSNASIGMKKYFVGVNSAGKVAISAKKIKEDNIGAQVLGLFTLSTGQDSWNQTN	563	167	0	27
PRT-180 (protein) MANQEIRYSEVTPYHVTSVWTKGVTPPANFTQGEDVFHAPYVANQGWYDITKTFNGKDDLLCGAATAGNMLHWWFDQNKDQIKRYLEEHPEKQKINFNGEQMFDVKEAIDTKNHQLDSKLFEYFKEKAFPYLSTKHLGVFPDHVIDMFINGYRLSLTNTQSTDVNEGSKDPRGGIFDAVFTRGDQSKLLTSRHDFKEKNLKEISDLIKKELTEGKALGLSHTYANVRINHVINLWGADFDSNGNLKAIYVTDSDSNASIGMKKYFVGVNSAGKVAISAKEIKEDNIGAQVLGLFTLSTGQDSWNQTN	690	197	0	0
PRT-184 (protein) MANQEIRYSEVTPYHVTSVWTKGVTPPANFTQGEDVFHAPYVANQGWYDITKTFNGKDDLLCGAATAGNMLHWWFDQNKDQIKRYLEEHPEKQKINFNGEQMFDVKEAIDTKNHQLDSKLFEYFKEKAFPYLSTKHLGVFPDHVIDMFINGYRLSLTNHGPTPVKEGSKDPRGGIFDAVFTRGDQSKLLTSRHDFKEKNLKEISDLIKKELTEGKALGLSHTYANVRINHVINLWGADFDSNGNLKAIYVTDSDSNASIGMKKYFVGVNSAGKVAISAKEIKEDNIGAQVLGLFTLSTGQDSWQKLS	629	165	0	0
PRT-186 (protein) MANQEIRYSEVTPYHVTSVWTKGVTPPANFRKIVDGNIAYYHAPYVANQGWYDITKTFNGKDDLLCGAATAGNMLHWWFDQNKDQIKRYLEEHPEKQKINFNGEQMFDVKEAIDTKNHQLDSKLFEYFKEKAFPYLSTKHLGVFPDHVIDMFINGYRLSLTNHGPTPVKEGSKDPRGGIFDAVFTRGDQSKLLTSRHDFKEKNLKEISDLIKKELTEGKALGLSHTYANVRINHVINLWGADFDSNGNLKAIYVTDSDSNASIGMKKYFVGVNSAGKVAISAKEIKEDNIGAQVLGLFTLSTGQDSWNQTN	646	218	9	0
PRT-188 (protein) MANQEIRYSEVTPYHVTSVWTKGVTPPANFRKIVDGNIAYYAAPYVANQGWYDITKTFNGKDDLLCGAATAGNMLHWWFDQNKDQIKRYLEEHPEKQKINFNGEQMFDVKELNTYESDHGYRDKSKLFEYFKEKAFPYLSTKHLGVFPDHVIDMFINGYRLSLTNHGPTPVKEGSKDPRGGIFDAVFTRGDQSKLLTSRHDFKEKNLKEISDLIKKELTEGKALGLSHTYANVRINHVINLWGADFDSNGNLKAIYVTDSDDKKLTIGDERIGMKKYFVGVNSAGKVAISAKEIKEDNIGAQVLGLFTLSTGQDSWNQTN	0	40	905	25
